Measured values reported in article PMC4819454 (ACS Central Science, 2016).
Like-named read-outs stand apart in the source and are kept apart here.

Assays:
[1] = target: porcine pancreatic α-amylase (porcine) (UniProt P00690); test: enzyme inhibition kinetics
[2] = target: human pancreatic α-amylase (human) (UniProt P04746); test: enzyme inhibition kinetics
[3] = target: HPA; settings: read-out: Ki against HPA, cited from earlier work
[4] = cited from earlier work
[5] = cited from earlier work; remark: listed apart in the source

Chain of UniProt P04746 (P04746 16-511): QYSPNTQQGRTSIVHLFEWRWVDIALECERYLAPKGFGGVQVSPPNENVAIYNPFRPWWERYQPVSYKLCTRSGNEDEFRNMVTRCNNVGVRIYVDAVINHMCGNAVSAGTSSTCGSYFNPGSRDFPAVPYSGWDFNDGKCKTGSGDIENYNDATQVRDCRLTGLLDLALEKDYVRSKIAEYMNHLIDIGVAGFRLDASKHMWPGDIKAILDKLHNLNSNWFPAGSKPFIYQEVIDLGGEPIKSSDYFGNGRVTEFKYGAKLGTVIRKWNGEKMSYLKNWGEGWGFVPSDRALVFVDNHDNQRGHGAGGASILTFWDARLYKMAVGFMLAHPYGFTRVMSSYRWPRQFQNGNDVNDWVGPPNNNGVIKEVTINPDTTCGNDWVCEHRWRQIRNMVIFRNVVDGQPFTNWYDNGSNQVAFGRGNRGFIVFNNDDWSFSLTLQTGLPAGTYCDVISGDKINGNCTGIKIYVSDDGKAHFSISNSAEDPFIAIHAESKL
Chain of UniProt P00690 (P00690 16-511): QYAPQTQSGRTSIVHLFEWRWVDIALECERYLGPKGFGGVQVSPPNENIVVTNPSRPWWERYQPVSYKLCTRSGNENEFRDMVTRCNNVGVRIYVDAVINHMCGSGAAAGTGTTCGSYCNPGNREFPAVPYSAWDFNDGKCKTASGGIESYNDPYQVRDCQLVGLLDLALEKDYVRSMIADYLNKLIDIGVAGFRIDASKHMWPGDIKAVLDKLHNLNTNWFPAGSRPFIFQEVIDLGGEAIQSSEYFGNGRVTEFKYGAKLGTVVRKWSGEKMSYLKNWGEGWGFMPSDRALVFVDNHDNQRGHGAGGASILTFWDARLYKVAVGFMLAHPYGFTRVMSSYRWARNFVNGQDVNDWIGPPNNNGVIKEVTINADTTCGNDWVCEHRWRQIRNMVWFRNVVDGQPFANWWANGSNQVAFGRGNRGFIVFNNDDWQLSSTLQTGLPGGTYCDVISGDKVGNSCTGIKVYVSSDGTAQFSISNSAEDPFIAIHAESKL

For recombinant helianthamide (peptide), the Ki [1] was 0.1 nM and the Ki [2] was 0.01 nM.

In the case of Montbretin A [reference compound], the Ki [3] is listed as 8 nM.

B1: tendamistat: 74-residue peptide with two disulfide bonds from Streptomyces tendae (protein, UniProt P01092 31-104, looked up)
Alpha-amylase inhibitor …: DTTVSEPAPSCVTLYQSWRYSQADNGCAQTVTVKVVYEDDTEGLCYAVAPGQITTVGDGYIGSHGHARYLARCL
For B1, the vulnerability to degradation [4] is listed as “vulnerability to degradation”, the Ki ([3]; estimated) is listed as 0.009 to 0.2 nM and the immunogenicity ([5]; clinic) is listed as “pronounced immunogenicity”. For the same molecule, the “blood plasma glucose levels” value ([5]; clinical trials) was “significant decrease in blood plasma glucose levels”.
